Experimental data as given in patent publication US20260263520A1 (OSLO UNIVERSITETSSYKEHUS HF, published 2026).
Changes are numbered by the printed parent chain. Numbers in names are those of the source.

B1: parental Oslo-2 monoclonal antibody (antibody, V domains shown)
VH: EVQILETGGGLVKPGGSLRLSCATSGFNFNDYFMNWVRQAPGKGLEWIAQIRNKNYNYATYFAESLEGRFTISRDDSKSSVYLQVNSLRAEDTALYYCTELRYDYWGQGVMVTVSS
VL: DIVMTQSPFSLAVSEGEMVTINCKSSQSLLSSGNQKNNLAWYQQKPGQSPKLLIYYASTRQSGVPDRFIGSGSGTDFTLTISDVQAEDLADYYCLQHYSSPYTFGAGTKLELK
notes: also called Oslo-2 antibody; Oslo-2 parental antibody
B2: Oslo-2 mAb variant Mutant 4 (L:S31W/L:H107W) (antibody, V domains shown)
VH: B1 VH
VL: B1 VL with S31W, H97W, L112I
notes: Only variable domains are tied to the molecule; also called Variant 4; variant 4
B3: Oslo-2 mAb variant Mutant 5 (L:S31M) (antibody, V domains shown)
VH: B1 VH
VL: B1 VL with S31M, L112I
notes: Only variable domains are tied to the molecule; also called Variant 5; variant 5

These binders were tested against antigen derived from p95HER2 (protein sequence …) (assay: indirect ELISA, antigen coated at 2.5 ug/mL, antibody in 3-fold dilutions from 3.0 ug/mL, absorbance at 450 nm).
Experimental: Antibody binding was determined by indirect ELISA. A microtitre plate was coated with 50 μL antigen (protein sequence: […]) (SEQ ID NO: 36) at 2.5 μg/mL for 1 hour with shaking at 300 rpm then blocked with 200 μL 1% casein in PBS for 16 hours at 4° C. The plate was washed twice with PBS containing 0.05% Tween-20. In a separate offline microplate, antibody test samples were prepared in duplicate in a 3-fold serial dilution starting at 3.0 ug/mL. 50 μL of each test sample was transferred to the assay plate and incubated for 1 hour with shaking at 300 rpm. The plate was washed four times with PBS containing 0.05% Tween-20. 50 μL of horse radish peroxidase (HRP) labelled anti-human IgG antibody (catalogue number A8792, Sigma) at a dilution of 1:4000 was added to each well and incubated for 1 hour with shaking at 300 rpm. The plate was washed four times with PBS containing 0.05% Tween-20 and twice with water. 100 μL Tetramethylbenzidine (TMB) substrate (catalogue number 10076433, Fisher) was added and incubated for 10 minutes. The reaction was stopped by addition of 50 μL IM HCl and absorbance was measured at 450 nm using a Byonoy plate reader.

Binding result, binds:
B1
B2
B3
